Target: T1, Anti-CD28 Fab (SEQ ID NOs: 202, 203)
T1 construct: biotinylated and captured on neutravidin coated plates in the phage ELISA
Assay: phage binding ELISA, Fab on plate;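 note: clonal phage supernatant ELISA, wells preincubated with CD28 antigen or blocking buffer only, then bound phage detected using HRP-linked anti-M13 antibody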
T1 sequence (VH, as listed by the source, chain 1 of 2): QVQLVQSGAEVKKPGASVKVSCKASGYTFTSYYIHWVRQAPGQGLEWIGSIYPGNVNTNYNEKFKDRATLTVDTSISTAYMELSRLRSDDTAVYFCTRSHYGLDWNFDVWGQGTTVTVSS
T1 sequence (VL, as listed by the source, chain 2 of 2): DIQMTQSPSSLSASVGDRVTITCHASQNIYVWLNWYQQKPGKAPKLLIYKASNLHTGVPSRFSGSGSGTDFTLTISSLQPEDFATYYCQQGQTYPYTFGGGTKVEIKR
Procedure: After panning, phage infected bacteria were plated out and colonies picked into 96 well blocks. Clonal phage was then amplified and separated from bacterial cells via centrifugation.
Clonal phage were harvested as crude supernatants and screened via standard ELISAs. […] Prior to the addition of clonal phage, wells were incubated with blocking buffer and CD28 antigen or blocking buffer alone. Without washing or aspirating, clonal phage supernatants were then added to the wells and incubated for a short time. Wells were then washed followed by detection of bound phage using a horse radish conjugated anti-M13 antibody. Clonal phage of interest were then sent for sequence analysis.

Row | Binder | Anti-CD28 Fab (SEQ ID NOs: 202, 203) signal
1 | TCAAGASFPWPWCL [Phage-1029] | 1.75
2 | TCAAGAVWGWPLCF [Phage-1039] | 1.73
3 | GCAAGFHYPWPLCL [Phage-1033] | 1.74
4 | TCAAGATYEWPYCF [Phage-980] | 1.96
5 | LCTAGLAYNWPTCL [Phage-1024] | 1.77
6 | TCAAGAHYAWPECF [Phage-1040] | 1.72
7 | LCKPGVPYQWPTCL [Phage-1018] | 1.78
8 | SCAAVFPYPWPPCF [Phage-1030] | 1.75
9 | TCAAGATYEWPTCL [Phage-983] | 1.96
10 | TCAAGATYPWPSCL [Phage-1038] | 1.73
11 | TCAAGATWPWPSCL [Phage-1065] | 1.61
12 | TCAAGAVWEWPMCF [Phage-1026] | 1.76
13 | SCAAGASYSWPACF [Phage-1016] | 1.79
14 | PCAAGAMWPWPVCL [Phage-986] | 1.95
15 | TCAAGAHYPWPYCL [Phage-1020] | 1.77
16 | TCSAGFSLQLSICL [Phage-1022] | 1.77
17 | TCSAGAMYPWPWCV [Phage-1031] | 1.75
18 | TCAAGAAWPWPHCL [Phage-1035] | 1.73

Row | Binder | Anti-CD28 Fab (SEQ ID NOs: 202, 203) signal
19 | TCAAGAAYTWPACF [Phage-982] | 1.96
20 | MCAAGAMYAWPTCL [Phage-1028] | 1.75
21 | SCSAGFHYPWPICL [Phage-1017] | 1.79
22 | WCAEFFNYHWPLCF [Phage-1021] | 1.77
23 | WCAAVFSYSWPLCL [Phage-1032] | 1.75
24 | GCAAGAHYPWPFCL [Phage-1025] | 1.76
25 | LCEEFFHYSWPVCL [Phage-1034] | 1.74
26 | SCAAGASYPWPQCL [Phage-1023] | 1.77
27 | YCSAGAQWPWPICL [Phage-1014] | 1.79
28 | WCAAVFSYTWSPCL [Phage-981] | 1.96
29 | TCAAGANYPWPLCL [Phage-1027] | 1.75
30 | GCAAGANYPWPLCL [Phage-1069] | 1.59
31 | MCTAGALYNWPTCL [Phage-1019] | 1.78
32 | WCAAGATWPWPLCI [Phage-1042] | 1.7
33 | RCRAGFSYNWPYCM [Phage-1041] | 1.72
34 | MCSAGATYPWPMCL [Phage-1037] | 1.73
35 | MCSAGATYPWPYCL [Phage-1057] | 1.64
36 | TCAAGASYQWPLCF [Phage-1015] | 1.79

Target: Anti-CD28 Fab (SEQ ID NOs: 202, 203)
Assay: phage binding ELISA on captured Fab;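 note: clonal phage supernatants added briefly to wells pre-incubated with CD28 antigen or with blocking buffer only, then washed, bound phage read by ELISA using HRP-coupled anti-M13 antibody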
Target sequence in this assay (VH, as listed by the source, chain 1 of 2): as the sequence (VH, as listed by the source, chain 1 of 2) above
Target sequence in this assay (VL, as listed by the source, chain 2 of 2): as the sequence (VL, as listed by the source, chain 2 of 2) above
Procedure: Clonal phage were harvested as crude supernatants and screened via standard ELISAs. […] Prior to the addition of clonal phage, wells were incubated with blocking buffer and CD28 antigen or blocking buffer alone. Without washing or aspirating, clonal phage supernatants were then added to the wells and incubated for a short time. Wells were then washed followed by detection of bound phage using a horse radish conjugated anti-M13 antibody.

Row | Binder | Anti-CD28 Fab signal
37 | YCDGHSREYIAKCL [Phage-106] | 2.29
38 | YCEGHSSEYMLKCL [Phage-103] | 2.3
39 | YCQGHLPMYMEKCL [Phage-80] | 2.34
40 | YCQGHLPIYMEKCL [Phage-132] | 2.24
41 | YCEGHLPMYMDKCL [Phage-140] | 2.22
42 | YCQGHLPMYMAKCL [Phage-77] | 2.34
43 | YCDGHAKEYMWKCL [Phage-102] | 2.3
44 | YCDGHSMEYMSKCL [Phage-139] | 2.22
45 | YCEGHSWANLGKCL [Phage-85] | 2.32
46 | YCEGHSAQYMSKCL [Phage-105] | 2.29
47 | YCDGHLPEYREKCF [Phage-86] | 2.32
48 | YCDGHAPQYMRKCL [Phage-101] | 2.3
49 | YCEGHLPEYMQKCM [Phage-136] | 2.23

From patent US20260274955A1 (JANUX THERAPEUTICS, published 2026)
